Assay results published in the RNAGym collection of RNA variant scans (doi:10.1073/pnas.2313332121).
This sample holds only a part of the variants without activity.

B1: TPR 5TU (parent)
chain: GGAUCUUCUCGAUCUAACAAAAAAGACAAAUCUGCCACAAAGCUUGAGAGCAUCUUCGGAUGCAGAGGCGGCAGCCUUCGGUGGCGCGAUAGCGCCAACGUUCUCAACUAUGACACGCAAAACGCGUGCUCCGUUGAAUGGAGUUUAUCAUG

Variants of: B1
Assay: polymerase ribozyme fitness, log enrichment relative to wild type (log ratio); higher = more active; in vitro selection for triplet polymerase activity
Outline: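 Mutant libraries were PCR-built and transcribed for each subunit of a heterodimeric triplet polymerase ribozyme and selected for one round in triplicate at −7 °C, frozen, before gel excision of extended constructs and streptavidin-bead capture. Input and output libraries were Illumina-sequenced, keeping genotypes with ≥10 input reads and ≥1 read per output. Fitness is a logarithmic ratio of genotype to wild-type enrichment, in base 2, using inverse-variance-weighted replicate averages.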

Row | Variant | polymerase ribozyme fitness (log ratio)
1 | GGAUCUUCUCGAUCUAACAAAAAAGACACAUCUGCCACAAUGCUUGAGAGCAUCUUCGGAUGCAGAGGCGGCAGCCUUCGGUAGCGCGAUAGCGCCAACGUUCUCAACUAUGACACGCAAAACGCGUGCUCCGUUGAUUGGAGUUUAUCAUG [A29C A41U G83A A138U] | ≤ -4.2
2 | GGACCUUCUCGAUCUAACAAAAAAGACAAAUCUGCCACAAAACUUGAGCCUAUCUUCGGAUGCAGAGGCGGCAGCCUUGGGUGGCGCGAUUGCGCCAACGUUCUCAACUAUGACACGCAAGACGCGUGCUCCGUUGAAUGGAGUUUAUCAUG [U4C G42A A49C G50C C51U C79G A91U A121G] | ≤ -4.2
3 | GGAUCUUCUCGAUCUAACAAAAAAGACAAAUCUGCCACAAAGCUUGAGAGCAACUUCGGAUGCAGAGGCGGCAGCCUCCGGUGGCGCGAGAGCGCGAACGUUCUCAACUAUGACACGCAAAACGCGUGCUCCGUUGAAUGGAGUUUAUCAUG [U53A U78C U90G C96G] | ≤ -4.2
4 | GGAUCUUCUCGAUCUAACAAAAAAGACAAAUCUGCCACAAAGCUUGAGAGCAUCUUCGGAUGCAGAGGCGGCAACCUUCGGUGGCGCGAUAGCGCCAACUUUCCCAACGAUGACACGCAAAACGCGUGCUCCGUUGAAUGGAGUUAAUCAUG [G74A G100U U104C U109G U146A] | ≤ -4.2
5 | GGAUCUUCUCGAUCUAACAAAAAAGACAAAUCUGCCACAAAGCUUGCGAGCAUCUUCGGAUGCAGAGGCGGCAGCCUUCGGUGGCGCGAUAGAGCCAACGUUCUCUACGAUGACACGCAAAACGCGUGCUCCGUUGAAUGGAGUUUAUCAUG [A47C C93A A106U U109G] | ≤ -4.2
6 | GGAUCUUCUCGAUCUAACACAAAAGACAAAUCUGCCACAAAGCUUGAGAGCAAAUUCGAAUGCAGAGGCGGCAGCCUUCGGUGACGCGAUAGCGCCAACGUUCUCAACUAUGACACGCAAAACCCGUGCUCCGUUGAAUGGAGUUUAUCAUG [A20C U53A C54A G59A G84A G124C] | -2.39
7 | GGAUCUUCUCGAUAUAACAAAAAAGACAAAUCUGCCACAAAGCUUGAGAGCAUCUUCGGAUCCAGAGGCGGCAGCAUUCGGUGGCGAGAUAGCGCCAACGUUCUCAACUAUGACACUCAAAACGCGUGCUCCGUUGCAUGGAGUUGAUCAUG [C14A G62C C76A C87A G117U A137C U146G] | ≤ -4.2
8 | GGAUCUUCUCGAUCUAACAAAAAAGACAAAUCUGCCACAAAGCUUGAGAGCAUCUUCGGAUGCAGAGGCGGCAGCCUUCGGUGGCGUGAUAGCGCCAACGUUCUCAACUAUGAGACGCAAAACGCGUGCUCCGUUGAAUGGAGUUUAUCAUG [C87U C114G] | -2.79
9 | GGAUCUUCUCGAUCUAACUAAAAAGAAAAAUCUGCCACAAAGCUUGAGAGCAUCUUCGGAUGCAGAGGCGGCAGCCUUCGGUGGCGCGAUUGCUCCAACGUUCUCAACUAUGACACGCAAAACGCUUGCUCCGUUGAAUGAACUUUAUCAUG [A19U C27A A91U G94U G126U G141A G143C] | ≤ -4.2
10 | GGAUCUUCUCGAUCUAACAAAAAAGACAAAUCUGCCACAAAGCUUGAGAGCAUUUUCGUAUGCAGAGGCGGCAACCUUCGGUGGCGCGAUAGCGCCAACGUUCUCAACUAUGACACGCAAAACGCGUGCUCCGUUGAAUGGAGUUUAUCAUG [C54U G59U G74A] | -3.62
11 | GGAUCUUCGCGAUCUAACAAAAAAGACAAAUCUGCCACAAAGCUUGAGAGCAUGUUCGGAUACAGAGGCGGCAGACUUCGCUGGCGCGAUAGGGCAAACGUUGUCAACUAUGACACGUAAAACGCGUGCUCCGUUGAAUGGAGUUUAUCAUG [U9G C54G G62A C75A G81C C93G C96A C103G C118U] | ≤ -4.2
12 | GGAUCUUCUCGAUCUAACGAAAAAGACAAAUCUGCCACAAAGCUUGAGAGCAUCUUCGGAUGCAGAGGCGGCAGCCUUCGGUGGCGCGAUAGCGCCAACGUUCUCAACUAUGACACGCAAAACGCGUGCUCCGUUGAAUGGAGUUUAGCAUG [A19G U148G] | -3.88
13 | GGAUCUUCUCGAUCUAACAAAAAAGACAAAUCUGCCUCAAAGCUUGAGAGCAUCGUCGGGUGCAGAGGCGGCAGCCUUCGGUGGGGCGAUAGCGCCAACGUUCUCACCUAUGACACGCAAAACGCGUGCUUCGUUGAAUGGAGUUUAUCAUG [A37U U55G A60G C85G A107C C131U] | ≤ -4.2
14 | GGAUCUUCUCGAUCUAACAAAAAAGACAAAUCUGCCACAAAGCUUGAGAGCAUCUUCGGAGGCAGAGGCGGCAGCCUUCGGUGGCGCGAUAACGCCAACGUUCUCAACUAUGACACGCAAAACGCGUGCUCCGUUGAAUGGAGUUUAUCAUG [U61G G92A] | ≤ -4.2
15 | GGAUCUUCUCGAUCUAACAAGAAAGACAAAACUGCCACAAAGCUUGAGAGGAUCUUCGGAUGCAGAGGCGUCAGCCUUCGGUGGCGCGCUAGCGCCAACGUUCUCGACUUUGACACGCAAAACGCGUGCUCCGUUGAGUGGAGUUUAUCAUG [A21G U31A C51G G71U A89C A106G A110U A138G] | ≤ -4.2
16 | GGAUCUUCUCGAUCUAACAAAAAAGACAAAUCUGCCACAAAGCUUGAGAGCAUCUUCGGAUGCAGAGGCGGCACCCUUCGGUGGCGCGAUAUCGCCAACGUUCUCAACUAUGACACGCAAAACGCGUGCUCCGUUGAAUGGAGUUUAUCAUG [G74C G92U] | -4.02
17 | GGAUCUUCUCUAUCUAACAAACAAGACAAAUCUGCCACAAAGCUUGAGAGCAUCUUCGGAUGCAGAGGCGGCAGCCUUCGGUGGCGUGAUAGCGCCAACGUUCUCAACUAUGACACGCAAAACGCGUGCUCCGUUGAAUGGAGUUUAUCAUG [G11U A22C C87U] | -2.61
18 | GGAUCUUCUCGAUCUAACAAAAAAGACAAAUCUGCCACAAAGCUUGAGAGCAUCUUCGGAUACAGAGGCGGCAGCCUUCGGUGGCGUGAUAGCGCCAACGUUCUCAACUAUGACACGCAGAACGCGUGCUCCGUUGAAUGGCGUUUAUCAUG [G62A C87U A120G A142C] | -3.11
19 | GGAUCUUCUCGAUCUAACAAAAAAGACAAAUCUGCCAUAAAGCUUGAGAGCAUCUUCGGAUGCAGAGGCGGCAGCCUUCGGUGGCGCGAUAGCGCCAACGUUCUCAACUAUGACACGCAUAACGCGUGCUCCGUUGAAUGGAGUUUAUCAUG [C38U A120U] | -0.54
